Source: publication PMC7756681, “Functional Hybrid Molecules for the Visualization of Cancer: PESIN‐Homodimers Combined with Multimodal Molecular Imaging Probes for Positron Emission Tomography and Optical Imaging: Suited for Tracking of GRPR‐Positive Malignant Tissue” (Chemistry (Weinheim an Der Bergstrasse, Germany), 2020)
Where two headings read alike, the source gives them in different places.

Key:
[1] = LogD determination of 68Ga-labeled MIUs and bioconjugates (water/1-octanol partition, γ-counter); details: pH 7.4
Description: Following the synthesis of the MIUs 6 a–13 a and the corresponding bioconjugates 6–13, the radiolabeling efficiency of the compounds with ^68Ga^3+ was investigated. […] In the following, we investigated the lipophilicity of the MIUs [^68Ga]6 a–[^68Ga]13 a and their bioconjugates [^68Ga]6–[^68Ga]13 (Table 1 and Figure 2 C,D).
(§1) A solution of the respective multimodal imaging unit (MIU) 6a – 13a (5 nmol) or multimodal imaging agent 6 - 14 (5 nmol) in H2O (Tracepur quality, 1mM) was added to 90 - 120 MBq of [68Ga]GaCl in a solution obtained by fractioned elution of an IGG 68Ge/68Ga generator system […]
(§2) with HCl (0.1 M, 1.6 mL) and subsequent titration to pH 3.5 – 4.2 by addition of sodium acetate solution (1.25 M, 50 – 75 µL). All labeling experiments were performed by addition of 2 mg ascorbic acid to suppress radiolysis-induced product fragmentation. In the labeling experiments of the MIUs 6a – 13a, 1 - 4 mg TCEP x HCl were added and the pH was adjusted to 3.5 – 4.2 by addition of sodium acetate solution (1.25 M). After reaction for 10 min at 45°C, the reaction mixtures were analyzed by analytical radio-HPLC.
(§3) For 68Ga-6/6a – 68Ga-13/13a, the water/1-octanol partition coefficient (log ) was determined by […]
(§4) adding 5 µL of the respectively 68Ga-labeled compound (0.8 – 1.2 MBq) to a mixture of phosphate buffer (0.05 M, pH 7.4, 795 µL) and 1-octanol (800 µL). The mixtures were intensively shaken for 5 minutes on a vibrating plate. After subsequent centrifugation at 13 000 rpm for 5 min, 125 µL were taken from each phase and measured in a γ-counter. The logD values were calculated from three or four independent experiments, each performed in triplicate.
For 14, the water/1-octanol partition coefficient (logD) was determined by semipreparative HPLC.
For this purpose, 10 µL solution (c = 5 x 10-4 mol/L) of the substance were added to a mixture of 1 mL 1-octanol and 990 µL phosphate buffered solution (0.05 M, pH 7.4) and the mixture was vigorously shaken for 5 minutes. After centrifugation, the phases were separated and both phases were analyzed by semipreparative HPLC. The logD was determined by three separate measurements, each experiment performed in triplicate.
(§5) Competitive receptor binding assay
(§6) Stably GRPR-transfected Human Embryonic Kidney 293 cells (HEK-GRPR) were cultured at 37°C in Dulbecco’s Modified Eagle’s Medium (DMEM, high glucose, GlutaMax-I, 500 mL) […]
(§7) a humidified atmosphere containing 5 % CO2. The medium was exchanged every two or three days and cells were split at >75 % confluence. In vitro binding affinities were determined via competitive displacement experiments which were performed at least trice, each experiment performed in triplicate. A Millipore Multiscreen punch kit and Millipore 96 well filter plates (pore size 1.2 µm) were used. The plates were incubated with PBS/BSA (1%) solution (each well 200 µL) for one hour before use. HEK-GRPR cells were harvested and suspended carefully in Opti- […]

[2] = target: T1, gastrin-releasing peptide receptor (GRPR) (Homo sapiens, UniProt P30550); test: Competitive displacement assay on stably GRPR-transfected HEK cells using [125I]-Tyr4-bombesin; assay type: binding; details: [125I]-Tyr4-bombesin as competitor, 1 h, ambient temperature, read-out: IC50 (GRPR affinity)
T1 construct: host or cells: Human Embryonic Kidney 293 cells (HEK-GRPR)
T1 sequence (P30550 whole entry, species assumed): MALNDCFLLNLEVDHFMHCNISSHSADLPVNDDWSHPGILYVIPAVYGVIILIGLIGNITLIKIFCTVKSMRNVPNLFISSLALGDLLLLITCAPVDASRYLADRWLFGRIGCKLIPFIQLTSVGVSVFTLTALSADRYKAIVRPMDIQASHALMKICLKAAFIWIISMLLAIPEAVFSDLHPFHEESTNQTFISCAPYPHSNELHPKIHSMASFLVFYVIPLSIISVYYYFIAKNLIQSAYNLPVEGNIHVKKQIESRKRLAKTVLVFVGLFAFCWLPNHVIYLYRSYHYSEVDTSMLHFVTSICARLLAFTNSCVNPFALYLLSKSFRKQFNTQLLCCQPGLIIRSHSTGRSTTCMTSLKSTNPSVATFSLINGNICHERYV
Description: as §5, §6
as §7, with “Opti-MEM I (GlutaMAX I) medium. 50 µL of a cell suspension containing […] were seeded in each well. To this, a total volume of 50 µL was added to each well, containing 25 µL (0.012” for “Opti-”
The competitor was added in 11 increasing concentrations ranging from 0.25 – 500 nM for 6 – […]
binding of the radioligand. After one hour of incubation at ambient temperature, the solution was filtrated and the filters were washed with cold PBS (3 times). The filters were collected and […]

[3] = Photophysical properties (absorption and emission spectra in PBS); assay type: physicochemical
Text: After studying the chemical and biological properties of the MIUs and their corresponding multimodal imaging agents, the photophysical properties of the substances were finally under investigation. Here, we found no significant decrease or shift of the optical and fluorescent characteristics of the bioconjugates compared to the MIUs (Table 2).
Fig. S27 Normalized absorption and emission spectra of 7 (left) and 7a (right), recorded in PBS
at a concentration of c = 1.0 x 10-5 mol/L, emission wavelength stated in the graph (bottom, left
Fig. S28 Normalized absorption and emission spectra of 8 (left) and 8a (right), recorded in PBS
Fig. S29 Normalized absorption and emission spectra of 9 (left) and 9a (right), recorded in PBS […]
Fig. S30 Normalized absorption and emission spectra of 10 (left) and 10a (right), recorded in
PBS at a concentration of c = 1.0 x 10-5 mol/L, emission wavelength stated in the graph (bottom,
Fig. S31 Normalized absorption and emission spectra of 11 (left) and 11a (right), recorded in
Fig. S32 Normalized absorption and emission spectra of 12 (left) and 12a (right), recorded in […]

PC-3 cells = test: Confocal fluorescence microscopy on GRPR-positive PC-3 cells; assay type: cell-based, human; details: 10 μM, 4 h incubation
Description: Figure 4 Confocal fluorescence microscopy images for pyridinium-based bioconjugate […]). […] (B) NIR detector window (660-720 nm, 6). (C) Transmitted light. […] After one hour of incubation at ambient temperature, the solution was filtrated and the filters were washed with cold PBS (3 times). The filters were collected and measured by γ-counting. […] were calculated by fitting the obtained data via a nonlinear regression analysis using GraphPad Prism Software (v5.04). […] PC-3 cells were cultured at 37°C in RPMI 1640 medium supplemented with 10% FCS, 1% L-Glutamine and 1% PenStrep in a humidified atmosphere containing 5% CO2. […] Fluorescence microscopy was performed on a Leica TCS SP8 confocal microscope with laser excitation wavelengths of 405 and 638 nm. Overlays of microscopies were generated directly with the operating software or afterwards using FIJI software (v1.50e). PC-3 cells (4 x 104) were seeded two days prior to the measurements in six-well culture plates, each well was equipped with cover slips for microscopy. Medium was exchanged after 24h. After 2 days, the medium was removed and the cells were washed carefully with PBS. Then, 1 mL of a 10 μM solution of 6 in antibiotic-free medium was added, followed by incubation for 4h. […]

[4] = assay type: physicochemical; details: pH 7.4
Description: as §1, §2, §3
as §4, with “The mixtures were intensively shaken for 5 minutes on a vibrating plate.” left out
For 14, the water/1-octanol partition coefficient (logD) was determined by semipreparative HPLC. […]

Row | SMILES | logD [1] | IC50 [2] [nM] | Log ϵ ([3]; 1×10^−5 mol L^−1) [M ^−1 cm^−1] | λ max ([3]; 1×10^−5 mol L^−1) [nm] | λem ([3]; 1×10^−5 mol L^−1, excitation wavelength λex=400 nm) [nm] | cellular localization of the agent (PC-3 cells) | logD [4]
1 | CSCC[C@H](NC(=O)[C@H](CC(C)C)NC(=O)[C@H](Cc1c[nH]cn1)NC(=O)CNC(=O)[C@@H](NC(=O)[C@H](C)NC(=O)[C@H](Cc1c[nH]c2ccccc12)NC(=O)[C@H](CCC(N)=O)NC(=O)CCOCCOCCOCCOCCNC(=O)CON=Cc1ccc(C(=O)NCCCN(CCCNC(=O)c2ccc(C=NOCC(=O)NCCOCCOCCOCCOCCC(=O)N[C@@H](CCC(N)=O)C(=O)N[C@@H](Cc3c[nH]c4ccccc34)C(=O)N[C@@H](C)C(=O)N[C@H](C(=O)NCC(=O)N[C@@H](Cc3c[nH]cn3)C(=O)N[C@@H](CC(C)C)C(=O)N[C@@H](CCSC)C(N)=O)C(C)C)cc2)CC(=O)N[C@H](CSC2CC(=O)N(CCN3C(=O)CC(SC[C@H](NC(=O)[C@H](CCCC[n+]4c(C)cc(/C=C/c5cc6c7c(c5)CCCN7CCC6)cc4C)NC(=O)CC[C@H](C(=O)O)N4CCN(CC(=O)O)CCN(CC(=O)O)CC4)C(N)=O)C3=O)C2=O)C(=O)NCCOCCOCC(N)=O)cc1)C(C)C)C(N)=O (some centres unmarked) [Compound 6] | -1.71 ± 0.05 | 19 ± 1.13 | 4.08 | 510 | 630 | cytoplasmic localization | 
2 | CSCC[C@H](NC(=O)[C@H](CC(C)C)NC(=O)[C@H](Cc1c[nH]cn1)NC(=O)CNC(=O)[C@@H](NC(=O)[C@H](C)NC(=O)[C@H](Cc1c[nH]c2ccccc12)NC(=O)[C@H](CCC(N)=O)NC(=O)CCOCCOCCOCCOCCNC(=O)CON=Cc1ccc(C(=O)NCCCN(CCCNC(=O)c2ccc(C=NOCC(=O)NCCOCCOCCOCCOCCC(=O)N[C@@H](CCC(N)=O)C(=O)N[C@@H](Cc3c[nH]c4ccccc34)C(=O)N[C@@H](C)C(=O)N[C@H](C(=O)NCC(=O)N[C@@H](Cc3c[nH]cn3)C(=O)N[C@@H](CC(C)C)C(=O)N[C@@H](CCSC)C(N)=O)C(C)C)cc2)CC(=O)N[C@H](CSC2CC(=O)N(CCN3C(=O)CC(SC(C)(C)C)C3=O)C2=O)C(=O)NCCOCCOCC(N)=O)cc1)C(C)C)C(N)=O (some centres unmarked) [Compound 14] |  | 18.7 ± 1.37 |  |  |  |  | -0.88 ± 0.04
